8 molecules from patent US20110123532A1 (ONCOMED PHARMACEUTICALS, published 2011) can be followed below.

For one data set, the target named is T1, mouse VEGF (mouse, UniProt Q00731-2 27-190, limits assumed).
T1 construct: also called mVEGF
T1 sequence (looked up): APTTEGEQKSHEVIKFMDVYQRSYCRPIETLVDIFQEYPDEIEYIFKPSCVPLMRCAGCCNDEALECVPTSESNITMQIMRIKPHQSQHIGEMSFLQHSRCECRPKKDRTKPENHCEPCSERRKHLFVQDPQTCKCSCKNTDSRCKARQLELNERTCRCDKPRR
Kind of data set: SPR (Biacore 2000), recombinant VEGF immobilised on CM5, IgG injected. The protocol:
(§1) IgG affinities were determined using a Biacore 2000 instrument. Briefly, recombinant proteins were immobilized on a CM5 chip using standard amine based chemistry (NHS/EDC). For each Fab and IgG, different concentrations (100-1 nM) were injected over the surface and kinetic data were collected over time. The data was fit using the simultaneous global fit equation to yield affinity constants (KD) for each Fab and IgG.

In data set [1] the target is T2, human VEGF (human, UniProt P15692-4 27-191).
T2 construct: Immobilised on a CM5 chip for Biacore; also called hVEGF; rhVEGF
Described as above. As to the method: as §1

Data set [2] has as its target T2, human VEGF. Kind of data set: SPR (Biacore), VEGF surface.
The target of data set [3] is T3, full length human DLL4 on transfected human 293 HEK cells (human, UniProt Q9NR61 27-685).
T3 construct: whole, on cells; also called hDLL4 transfected cells; human DLL4 transfected cells
Kind of data set: flow cytometry on human 293 HEK cells transfected with full length human DLL4 and GFP; goat anti-human IgG H/L-PE; MFI against log(nM), non-linear fit. Background: In flow cytometry, cells or beads pass a laser one at a time.

Data set [4] addresses T2, human VEGF. Kind of data set: SPR (Biacore), VEGF surface; reference 219R0202 IgG. Background: In SPR one partner is held on a chip, and binding of the other changes the refractive index at the surface.
For data set [5], the target named is T3, full length human DLL4 on transfected …. Kind of data set: flow cytometry on HEK 293 cells transfected with human DLL4; reference 21M18. As to the method:
Briefly, Human 293 HEK cells were transfected using Fugene 6 transfection reagent as recommended by the manufacturer (Roche Inc.). Cells were transfected with cDNA expression vector encoding full length human DLL4, as well as a second vector encoding green fluorescent protein, pcDNA-GFP, to mark the transiently transfected cells. […] Cells were then rinsed twice with Staining Medium (HBSS with 2% FCS) and incubated with fluorescent secondary antibody, goat-anti-human IgG H/L-phycoerythrin (PE), at 1:200 dilution in PBS for 1 hour. Cells were then analyzed by flow cytometry using a FACS Caliber instrument (BD Bioscience). Specific SBGSP binding was assessed by determining the presence of cells positive for GFP signal and PE signal.

Data set [6] deals with the molecule itself. Kind of data set: non-reducing western blot of conditioned medium of transfected HEK293 cells, anti-FLAG (left, middle) and anti-Fc (right); homodimer of the minibody. The source says:
Var1 contains amino acid 249 Lys to Glu substitution and amino acid 288 Lys to Glu substitution within the CH3 domain. Antibody Var2 contains substitutions of amino acid 249 Lys to Glu substitution, amino acid 286 Tyr to Phe, and amino acid 288 Lys to Glu within the CH3 domain. Antibody Var3 (also referred to as 13A) contains substitutions of amino acid 236 Glu to Lys and amino acid 278 Asp to Lys. HEK293 cells were transiently transfected with combinations of expression vectors as indicated. Non-reducing Western blot analysis was conducted with an anti-FLAG antibody to reveal the size of the secreted antibody products.
Amino acid substitutions were introduced into either a truncated heavy chain (termed mini-body) containing the linker and CH2-CH3 region of a heavy chain, or a full length antibody heavy chain heavy chain.
Background: In western blotting, separated proteins are transferred to a membrane and probed.

B1: 219R0302 IgG (anti-VEGF antibody reformatted to IgG2) (antibody, V domains shown)
VH: QVQLKQSGAELVKPGASVKLSCKASGYTFTNYWMHWVKLRPGQGFEWIGDINPSNGGTSYNEKFKRKATLTVDKSSSTAYMQLSSLTSEDSAVYYCTIHYYDNSYAMDYWGQGTSVTVSS
VL: DIQMTQSPSSLSASVGDRVTITCQASQDISNYVNWYQQKPGKAPKLLIYDASNLQTGVPSRFSGRGSGTHFTFTISSLQPEDLATYYCQQYDDLPPTFGRGTKLEIKR
notes: Mouse VH from immunised mice paired with a human kappa light chain from a phagemid library; also called 21R0302
As for B1, the Kd (as a rule, the free concentration of one partner at which half of the binding sites on the other are occupied at equilibrium, for simple one-to-one binding) is 21 nM with mouse VEGF, 2.1 nM in the data set with human VEGF [1] and 2.1 nM with human VEGF [2].

B2: 219R0202 IgG (anti-VEGF antibody reformatted to IgG2) (antibody, V domains shown)
VH: QVQLKQSGAELVKPGASVKLSCKASGYTFTNYWMHWVKLRPGQGFEWIGDINPSNGGTSYNEKFKRKATLTVDKSSSTAYMQLSSLTSEDSAVYYCTIHYYDNSYAMDYWGQGTSVTVSS
VL: DIQLTQSPSSLSASVGDRVTITCRASQGINNHLAWYQQKPGKVPKSLIYAASNLHSGVPSKFSGSGSGTHFTLIISSLQPEDIATYYCQQYDNLPLTFGGGTKVEIKR
notes: Light chain variant of 219R0302 with the same heavy chain
As to B2, the equilibrium dissociation constant (Kd) came out at 23 nM in the data set with mouse VEGF, 1.5 nM with human VEGF [1] and 1.5 nM with human VEGF [2].

B3: 21M18 (antibody, V domains shown)
VH: QVQLVQSGAEVKKPGASVKISCKASGYSFTAYYIHWVKQAPGQGLEWIGYISSYNGATNYNQKFKGRVTFTTDTSTSTAYMELRSLRSDDTAVYYCARDYDYDVGMDYWGQGTLVTVSS
VL: DIVMTQSPDSLAVSLGERATISCRASESVDNYGISFMKWFQQKPGQPPKLLIYAASNQGSGVPDRFSGSGSGTDFTLTISSLQAEDVAVYYCQQSKEVPWTFGGGTKVEIKR
notes: also called 21M18 antibody; anti-human DLL4 (21M18)
For B3, the EC50 (in general, the concentration at which the effect is half-maximal) in data set [3] is 2 nM.

B4: Homo 13B (21M18) (antibody, human IgG2, kappa, V domains shown)
VH: QVQLVQSGAEVKKPGASVKISCKASGYSFTAYYIHWVKQAPGQGLEWIGYISSYNGATNYNQKFKGRVTFTTDTSTSTAYMELRSLRSDDTAVYYCARDYDYDVGMDYWGQGTLVTVSS
VL: DIVMTQSPDSLAVSLGERATISCRASESVDNYGISFMKWFQQKPGQPPKLLIYAASNQGSGVPDRFSGSGSGTDFTLTISSLQAEDVAVYYCQQSKEVPWTFGGGTKVEIKR
notes: also called 21M18 HC (with 13B mutation) expressed only with 21M18 LC
B4 returned an EC50 in data set [3] of 7.7 nM.

B5: 219R0202-21M18 single gene bispecific antibody (SGBSP) (bispecific antibody, human IgG2, kappa)
chain 1: DIQLTQSPSSLSASVGDRVTITCRASQGINNHLAWYQQKPGKVPKSLIYAASNLHSGVPSKFSGSGSGTHFTLIISSLQPEDIATYYCQQYDNLPLTFGGGTKVEIKRTVAAPSVFIFPPSDEQLKSGTASVVCLLNNFYPREAKVQWKVDNALQSGNSQESVTEQDSKDSTYSLSSTLTLSKADYEKHKVYACEVTHQGLSSPVTKSFNRGECGGGGGSGGGGSGGGGSGGGGSGGGGSGGGGSQVQLKQSGAELVKPGASVKLSCKASGYTFTNYWMHWVKLRPGQGFEWIGDINPSNGGTSYNEKFKRKATLTVDKSSSTAYMQLSSLTSEDSAVYYCTIHYYDNSYAMDYWGQGTSVTVSSASTKGPSVFPLAPCSRSTSESTAALGCLVKDYFPEPVTVSWNSGALTSGVHTFPAVLQSSGLYSLSSVVTVPSSNFGTQTYTCNVDHKPSNTKVDKTVERKCCVECPPCPAPPVAGPSVFLFPPKPKDTLMISRTPEVTCVVVDVSHEDPEVQFNWYVDGVEVHNAKTKPREEQFNSTFRVVSVLTVVHQDWLNGKEYKCKVSNKGLPAPIEKTISKTKGQPREPQVYTLPPSREKMTKNQVSLTCLVKGFYPSDIAVEWESNGQPENNYKTTPPMLKSDGSFFLYSKLTVDKSRWQQGNVFSCSVMHEALHNHYTQKSLSLSPGK
chain 2: DIVMTQSPDSLAVSLGERATISCRASESVDNYGISFMKWFQQKPGQPPKLLIYAASNQGSGVPDRFSGSGSGTDFTLTISSLQAEDVAVYYCQQSKEVPWTFGGGTKVEIKRTVAAPSVFIFPPSDEQLKSGTASVVCLLNNFYPREAKVQWKVDNALQSGNSQESVTEQDSKDSTYSLSSTLTLSKADYEKHKVYACEVTHQGLSSPVTKSFNRGECGGGGSGGGGSGGGGSGGGGSGGGGSGGGGSQVQLVQSGAEVKKPGASVKISCKASGYSFTAYYIHWVKQAPGQGLEWIGYISSYNGATNYNQKFKGRVTFTTDTSTSTAYMELRSLRSDDTAVYYCARDYDYDVGMDYWGQGTLVTVSSASTKGPSVFPLAPCSRSTSESTAALGCLVKDYFPEPVTVSWNSGALTSGVHTFPAVLQSSGLYSLSSVVTVPSSNFGTQTYTCNVDHKPSNTKVDKTVERKCCVECPPCPAPPVAGPSVFLFPPKPKDTLMISRTPEVTCVVVDVSHEDPEVQFNWYVDGVEVHNAKTKPREEQFNSTFRVVSVLTVVHQDWLNGKEYKCKVSNKGLPAPIEKTISKTKGQPREPQVYTLPPSREEMTKNQVSLTCLVEGFYPSDIAVEWESNGQPENNYKTTPPMLDSDGSFFLYSELTVDKSRWQQGNVFSCSVMHEALHNHYTQKSLSLSPGK
notes: Heterodimer of two single-gene chains, anti-VEGF arm (13A) and anti-DLL4 arm (13B), IgG2; also called 219R0202_21M18 SGBSP; 219R0202-21M18 SGBSP
In the case of B5, in the data set with human VEGF [4], the “fold weaker binding affinity than 219R0202” value is roughly 5 fold. In addition, in data set [5], the “fold loss in DLL4 binding activity compared to 21M18” value is roughly 5 fold. This molecule also registered a dissociation constant Kd in the data set with human VEGF [2] of 6.9 nM. In addition, the EC50 in data set [3] was determined as 10.2 nM.

B6: FLAG tagged minibody with wild type human IgG2 CH2 and CH3 domains (WT) (other)
chain: DYKDDDDKCVECPPCPAPPVAGPSVFLFPPKPKDTLMISRTPEVTCVVVDVSHEDPEVQFNWYVDGVEVHNAKTKPREEQFNSTFRVVSVLTVVHQDWLNGKEYKCKVSNKGLPAPIEKTISKTKGQPREPQVYTLPPSREEMTKNQVSLTCLVKGFYPSDIAVEWESNGQPENNYKTTPPMLDSDGSFFLYSKLTVDKSRWQQGNVFSCSVMHEALHNHYTQKSLSLSPGK
notes: also called WT minibody
On to B6, for which, in data set [6], the binding result is “binds”.

B7: FLAG tagged minibody variant Var1 (13B) (other)
chain: DYKDDDDKCVECPPCPAPPVAGPSVFLFPPKPKDTLMISRTPEVTCVVVDVSHEDPEVQFNWYVDGVEVHNAKTKPREEQFNSTFRVVSVLTVVHQDWLNGKEYKCKVSNKGLPAPIEKTISKTKGQPREPQVYTLPPSREEMTKNQVSLTCLVEGFYPSDIAVEWESNGQPENNYKTTPPMLDSDGSFFLYSELTVDKSRWQQGNVFSCSVMHEALHNHYTQKSLSLSPGK
Regarding B7, the binding result in data set [6] was “binds”.

B8: 219R0202-21M18 monovalent bispecific antibody (MBSP) with common 21M18 light chain (bispecific antibody, human IgG2, kappa)
heavy 1: QVQLKQSGAELVKPGASVKLSCKASGYTFTNYWMHWVKLRPGQGFEWIGDINPSNGGTSYNEKFKRKATLTVDKSSSTAYMQLSSLTSEDSAVYYCTIHYYDNSYAMDYWGQGTSVTVSSASTKGPSVFPLAPCSRSTSESTAALGCLVKDYFPEPVTVSWNSGALTSGVHTFPAVLQSSGLYSLSSVVTVPSSNFGTQTYTCNVDHKPSNTKVDKTVERKCCVECPPCPAPPVAGPSVFLFPPKPKDTLMISRTPEVTCVVVDVSHEDPEVQFNWYVDGVEVHNAKTKPREEQFNSTFRVVSVLTVVHQDWLNGKEYKCKVSNKGLPAPIEKTISKTKGQPREPQVYTLPPSREKMTKNQVSLTCLVKGFYPSDIAVEWESNGQPENNYKTTPPMLKSDGSFFLYSKLTVDKSRWQQGNVFSCSVMHEALHNHYTQKSLSLSPGK
heavy 2: QVQLVQSGAEVKKPGASVKISCKASGYSFTAYYIHWVKQAPGQGLEWIGYISSYNGATNYNQKFKGRVTFTTDTSTSTAYMELRSLRSDDTAVYYCARDYDYDVGMDYWGQGTLVTVSSASTKGPSVFPLAPCSRSTSESTAALGCLVKDYFPEPVTVSWNSGALTSGVHTFPAVLQSSGLYSLSSVVTVPSSNFGTQTYTCNVDHKPSNTKVDKTVERKCCVECPPCPAPPVAGPSVFLFPPKPKDTLMISRTPEVTCVVVDVSHEDPEVQFNWYVDGVEVHNAKTKPREEQFNSTFRVVSVLTVVHQDWLNGKEYKCKVSNKGLPAPIEKTISKTKGQPREPQVYTLPPSREEMTKNQVSLTCLVEGFYPSDIAVEWESNGQPENNYKTTPPMLDSDGSFFLYSELTVDKSRWQQGNVFSCSVMHEALHNHYTQKSLSLSPGK
light: DIVMTQSPDSLAVSLGERATISCRASESVDNYGISFMKWFQQKPGQPPKLLIYAASNQGSGVPDRFSGSGSGTDFTLTISSLQAEDVAVYYCQQSKEVPWTFGGGTKVEIKRTVAAPSVFIFPPSDEQLKSGTASVVCLLNNFYPREAKVQWKVDNALQSGNSQESVTEQDSKDSTYSLSSTLTLSKADYEKHKVYACEVTHQGLSSPVTKSFNRGEC
notes: also called 219R0202_21M18 MBSP
For B8, the “fold weaker binding affinity than 219R0202” value with human VEGF [4] was roughly 14 fold. Besides, in data set [5], the “fold loss in DLL4 binding activity compared to 21M18” value is roughly 3 fold. Moreover, the Kd in the data set with human VEGF [2] was 21 nM. In data set [3], this molecule gave an EC50 of 6.2 nM.
